Consider 2 molecules from patent publication US20220267469A1.

The target in assay [1] is Biotinylated human BSSL (human) (UniProt P19835). The assay is described as follows: flow cytometry displacement assay; 3.0 ug antibody, 1 ug b-hBSSL. A general note: Flow cytometry measures light scatter and fluorescence of single cells or particles in a stream.
The target is the same in assay [2]. The assay is described as follows: flow cytometry displacement assay; 1.5 ug antibody, 1 ug b-hBSSL.
The target is the same in assay [3]. The assay is described as follows: ELISA, b-hBSSL coated through streptavidin at 1 µg/ml, detection HRP anti-FLAG M2, A450. A general note: In an ELISA, binding on a coated surface is turned into a signal by an enzyme label.
For assay [4] the target is unchanged. The assay is described as follows: SPR single cycle kinetics, scFv captured by anti-FLAG M2.

Chain of Biotinylated human BSSL (human) (P19835 other isoform, or with tags, fused parts or gaps): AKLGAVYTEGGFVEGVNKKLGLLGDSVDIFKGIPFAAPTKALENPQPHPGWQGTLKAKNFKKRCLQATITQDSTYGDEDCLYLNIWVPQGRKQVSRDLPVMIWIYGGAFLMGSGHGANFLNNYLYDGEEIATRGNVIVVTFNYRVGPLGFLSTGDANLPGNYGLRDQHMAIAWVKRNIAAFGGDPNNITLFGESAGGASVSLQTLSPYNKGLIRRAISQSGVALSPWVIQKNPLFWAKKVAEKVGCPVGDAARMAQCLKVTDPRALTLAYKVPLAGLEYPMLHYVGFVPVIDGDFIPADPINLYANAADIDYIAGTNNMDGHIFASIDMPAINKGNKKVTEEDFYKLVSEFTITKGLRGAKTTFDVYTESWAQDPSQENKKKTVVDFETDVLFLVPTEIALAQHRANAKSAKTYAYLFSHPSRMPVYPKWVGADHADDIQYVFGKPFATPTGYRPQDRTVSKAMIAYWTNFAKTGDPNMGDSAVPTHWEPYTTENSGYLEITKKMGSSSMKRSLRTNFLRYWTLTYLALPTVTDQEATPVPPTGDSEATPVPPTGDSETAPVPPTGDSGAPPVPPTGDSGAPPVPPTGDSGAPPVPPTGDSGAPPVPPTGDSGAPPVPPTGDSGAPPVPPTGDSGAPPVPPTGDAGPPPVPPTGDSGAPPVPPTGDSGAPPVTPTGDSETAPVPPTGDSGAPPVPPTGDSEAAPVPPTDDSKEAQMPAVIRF

B1: S-SL048-75 hIgG4 S228P (antibody, V domains shown)
VH: QVQLVQSGAEVKKPGASVKVSCKASGYTFTSYNMHWVRQAPGQGLEWMGVIYPGGGYTSYAQKFKGRVTMTRDTSTSTVYMELSSLRSEDTAVYYCARDYYGSSPLGYWGQGTLVTVSS
VL: DIQMTQSPSSLSASVGDRVTITCRASQSISYLNWYQQKPGKAPKLLIYATSNLQSGVPSRFSGSGSGTDFTLTISSLQPEDFATYYCHQRSSSPTFGQGTKLEIK
Take B1: the values for the percentage reduction of b-hBSSL binding to CD14+ monocytes in assay [1] and in assay [2] were 0% and 3%, respectively.

B2: AS20 scFv (scFv, V domains shown, not shown: small tags and cut ends)
VH: QVQLQQPGAELVKPGASVKMSCKASGYTFTSYNMHWVKQTPGQGLEWIGVIYPGNGDTSYNQKFKGKATLTADKSSSTAYMQLSSLTSEDSAVYYCARDYYGSSPLGYWGQGTTLTVSS
VL: QIVLTQSPAVMSASPGEKVTMTCSASSSISYMHWYQQKPGTSPKRWIYDTSKLASGVPARFSGSGSGTSYSLTISSMEAEDAATYYCHQRSSYPTFGGGTKLEIK
modifications: Gly-Ser linker; C-terminal 3xFLAG and His6 tags
Consider B2, for which the EC50 (read off the curve) – broadly, the concentration at which the effect is half-maximal – in assay [3] is 0.02 µg/mL. In assay [4], the dissociation constant Kd (commonly the constant that tells how readily two partners part at equilibrium) is 800 pM; the koff – broadly, a measure of how fast the partners let go of each other – came out at 4.4e-05 s⁻¹; the kon (as a rule, the rate constant with which the complex forms) worked out at 55000 M⁻¹ s⁻¹.
